From patent publication US11053304 (CENTIVAX, dated 2021)
Read-outs that look alike come from different tables or passages of the source.

Columns and labels:
Experiment in all cases: SPR, scFv captured via anti-V5, RBD as analyte
[1] = target: T1, SARS-CoV-2 Receptor Binding Domain (RBD) protein (SARS-CoV-2, UniProt P0DTC2 319-541)
[2] = target: MERS Receptor Binding Domain (RBD) protein (MERS coronavirus, UniProt K9N5Q8 367-606)
[3] = target: SARS-CoV-1 Receptor Binding Domain (RBD) protein (SARS-CoV-1, UniProt P59594 306-527)
[4] = target: T1, SARS-CoV-2 Receptor Binding Domain …; remark: listed apart in the source

| Binder | Kd [1] [nM] | koff [1] [s⁻¹] | kon [1] [M⁻¹ s⁻¹] | binding result [2] | binding result [3] | Kd [4] [nM] |
| --- | --- | --- | --- | --- | --- | --- |
| COVID19_P19_H07 (scFv, V domains shown) VH: EVQLVESGGGLVQPGGSLRLSCAASGFTFGTSAVSWVRQAPGKGLEWVSAISGSGGSTYYADSVKGRFTISRDNSKNTLYLQMNSLRAEDTAVYYCVTQRDNSRDYFPHYFHDMDVWGQGTLVTVSS VL: DIVMTQSPLSLPVTPGEPASISCRSSQSLLYSDGDTYLDWYLQKPGQSPQLLIYLGSIRAPGVPDRFSGSGSGTDFTLKISRVEAEDVGVYYCMQGLETPWTFGGGTKVEIKR | 37 | 0.00786 | 212000 | no binding (tested: up to 300 nM) | no binding (tested: up to 300 nM) | < 50 |
| COVID19_P07_D09 (scFv, V domains shown) VH: EVQLVESGGGLVQPGGSLRLSCAASGFSFSRYGMHWVRQAPGKGLEWVSGISADGGTAYYADSVKGRFTISRDNSKNTLYLQMNSLRAEDTAVYYCVTNMDNSRDYFPHYFHDMDVWGQGTLVTVSS VL: not shown | 1.8 | 5.7e-05 | 32500 | no binding (tested: up to 300 nM) | no binding (tested: up to 300 nM) | < 50 |
| COVID19_P07_F02 (scFv, V domains shown) VH: EVQLVESGGGLVQPGGSLRLSCAASGFAFSNYGMHWIRQAPGKGLEWVSGIDGSGGTAHYADSVKGRFTISRDNSKNTLYLQMNSLRAEDTAVYYCVTNMDNSRDYFPHYFHDMDVWGQGTLVTVSS VL: not shown | 10.1 | 0.00018 | 17800 | no binding (tested: up to 300 nM) | no binding (tested: up to 300 nM) | < 50 |
| COVID19_P20_B06 (scFv, V domains shown) VH: EVQLVESGGGLVQPGGSLRLSCAASGFTFHDYAMHWVRQAPGKGLEWVAVTSYDGNTKYYADSVKGRFTISRDNSKNTLYLQMNSLRAEDTAVYYCVTNLDNSRDYFPHYFHDMDVWGQGTLVTVSS VL: not shown | 5.1 | 0.000439 | 86000 | no binding (tested: up to 300 nM) | no binding (tested: up to 300 nM) | < 50 |
| COVID19_P07_G02 (scFv, V domains shown) VH: EVQLVESGGGLVQPGGSLRLSCAASGFRFNTYAMHWVRQAPGKGLEWVAVISSSGRNKFYADSVKGRFTISRDNSKNTLYLQMNSLRAEDTAVYYCVTNMDNSRDYFPHYFHDMDVWGQGTLVTVSS VL: not shown | 4.8 | 5.7e-05 | 11900 | no binding (tested: up to 300 nM) | no binding (tested: up to 300 nM) | < 50 |
| COVID19_P08_B12 (scFv, V domains shown) VH: EVQLVESGGGLVQPGGSLRLSCAASGFSFRSYGMHWVRQAPGKGLEWVAVISSDGRNKFYADSVKGRFTISRDNSKNTLYLQMNSLRAEDTAVYYCVTNFDNSRDYFPHYFHDMDVWGQGTLVTVSS VL: not shown | 3.5 | 5.7e-05 | 16000 | no binding (tested: up to 300 nM) | no binding (tested: up to 300 nM) | < 50 |
| COVID19_P19_C07 (scFv, V domains shown) VH: EVQLVESGGGLVQPGGSLRLSCAASGFPFSLYGMHWVRQAPGKGLEWVAVITSDGRSKFYADSVKGRFTISRDNSKNTLYLQMNSLRAEDTAVYYCVTNLDNSRDYFPHYFHDMDVWGQGTLVTVSS VL: not shown | 3.6 | 5.7e-05 | 16000 | no binding (tested: up to 300 nM) | no binding (tested: up to 300 nM) | < 50 |
| COVID19_P08_F04 (scFv, V domains shown) VH: EVQLVESGGGLVQPGGSLRLSCAASGFRFDDFGMHWYRQAPGKGLEWVSATSGGGSITYYADSVKGRFTISRDNSKNTLYLQMNSLRAEDTAVYYCVTNMDNSRDYFPHYFHDMDVWGQGTLVTVSS VL: not shown | 2.04 | 0.00019 | 93000 | no binding (tested: up to 300 nM) | no binding (tested: up to 300 nM) | < 50 |
